In patent publication US6585979:

Key:
[1] = target: rgp120 from breakthrough virus clone C11.7 (herpes simplex virus type 1; HIV-1, breakthrough virus of vaccinee C11); experiment: capture ELISA, MAb at 2 ug/ml
[2] = target: rgp120 from breakthrough virus clone C10.7 (herpes simplex virus type 1; HIV-1, breakthrough virus of vaccinee C10); experiment: capture ELISA, MAb at 2 ug/ml
[3] = target: rgp120 from breakthrough virus clone C6.5 (herpes simplex virus type 1; HIV-1, breakthrough virus of vaccinee C6); experiment: capture ELISA, MAb at 2 ug/ml
[4] = target: rgp120 from breakthrough virus clone C15.3 (herpes simplex virus type 1; HIV-1, breakthrough virus of vaccinee C15); experiment: capture ELISA, MAb at 2 ug/ml
[5] = target: rgp120 from breakthrough virus clone C7.2 (herpes simplex virus type 1; HIV-1, breakthrough virus of vaccinee C7); experiment: capture ELISA, MAb at 2 ug/ml
[6] = target: rgp120 from breakthrough virus clone C11.5 (herpes simplex virus type 1; HIV-1, breakthrough virus of vaccinee C11); experiment: capture ELISA, MAb at 2 ug/ml
[7] = target: rgp120 from breakthrough virus clone C10.5 (herpes simplex virus type 1; HIV-1, breakthrough virus of vaccinee C10); experiment: capture ELISA, MAb at 2 ug/ml
[8] = target: rgp120 from breakthrough virus clone C8.6 (herpes simplex virus type 1; HIV-1, breakthrough virus of vaccinee C8); experiment: capture ELISA, MAb at 2 ug/ml
[9] = target: rgp120 from breakthrough virus clone C6.1 (herpes simplex virus type 1; HIV-1, breakthrough virus of vaccinee C6); experiment: capture ELISA, MAb at 2 ug/ml
[10] = target: rgp120 from breakthrough virus clone C8.3 (herpes simplex virus type 1; HIV-1, breakthrough virus of vaccinee C8); experiment: capture ELISA, MAb at 2 ug/ml
[11] = target: rgp120 from breakthrough virus clone C17.1 (herpes simplex virus type 1; HIV-1, breakthrough virus of vaccinee C17); experiment: capture ELISA, MAb at 2 ug/ml
[12] = target: rgp120 from breakthrough virus clone C17.3 (herpes simplex virus type 1; HIV-1, breakthrough virus of vaccinee C17); experiment: capture ELISA, MAb at 2 ug/ml
[13] = target: rgp120 from breakthrough virus clone C15.2 (herpes simplex virus type 1; HIV-1, breakthrough virus of vaccinee C15); experiment: capture ELISA, MAb at 2 ug/ml
[14] = target: MN-rgp120 (herpes simplex virus type 1; HIV-1, MN strain); experiment: capture ELISA (FIG. 5C)
[15] = target: MN-rgp120 (herpes simplex virus type 1; HIV-1, MN strain); experiment: capture ELISA, MAb at 2 ug/ml (reference)

Row | Substance | relative reactivity (OD ratio to MN-rgp120) [1] | relative reactivity (OD ratio to MN-rgp120) [2] | relative reactivity (OD ratio to MN-rgp120) [3] | relative reactivity (OD ratio to MN-rgp120) [4] | relative reactivity (OD ratio to MN-rgp120) [5] | relative reactivity (OD ratio to MN-rgp120) [6] | relative reactivity (OD ratio to MN-rgp120) [7] | relative reactivity (OD ratio to MN-rgp120) [8] | relative reactivity (OD ratio to MN-rgp120) [9] | relative reactivity (OD ratio to MN-rgp120) [10] | relative reactivity (OD ratio to MN-rgp120) [11] | relative reactivity (OD ratio to MN-rgp120) [12] | relative reactivity (OD ratio to MN-rgp120) [13] | fold greater binding than to any of the breakthrough virus envelope proteins [14] [fold] | relative reactivity (OD ratio to MN-rgp120) [15]
1 | MAb 50.1 (antibody) | 0 | 0.48 | 0.33 | 0.37 | 0.6 | 0 | 0.4 | 0.34 | 0.37 | 0.37 | 0.52 | 0.56 | 0.47 | 10 | 1
2 | MAb 15e (antibody) | 0.17 | 0.5 | 0.75 | 0.63 | 0.71 | 0.17 | 0.46 | 0.29 | 0.17 | 0.38 | 0.33 | 0.33 | 0.92 |  | 1
